Data on one substance can be found in patent US20260055150A1, “GRAIL-1 PEPTIDE PRODUCTS AND METHODS” (REGENTS OF THE UNIVERSITY OF MICHIGAN, priority 2022, published 2026).

The assay concerns the target T1, claudin-1 (Homo sapiens, UniProt O95832).
T1 construct: endogenous in cells; host or cells: colonic PDO implanted in mouse rectum
T1 sequence (O95832 1-211): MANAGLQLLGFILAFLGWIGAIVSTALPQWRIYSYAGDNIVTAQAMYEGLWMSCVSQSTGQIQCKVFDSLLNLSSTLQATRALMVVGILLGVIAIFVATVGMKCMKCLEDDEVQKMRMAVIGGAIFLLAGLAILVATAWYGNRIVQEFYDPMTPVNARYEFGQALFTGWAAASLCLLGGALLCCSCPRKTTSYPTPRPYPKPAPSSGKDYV
Kind of assay: In vivo fluorescence imaging with RTS*-Cy5.5. Also on record: species or system mouse. To be noted: after intravenous administration. On the procedure: (A) Photo of is shown of a flexible fiber-coupled side-view confocal endomicroscope. […] Confocal images show claudin-1 expression from (D) dysplasia and (E) normal colonic mucosa with subcellular resolution. Images were collected ˜1 hour post-injection of RTS*-Cy5.5. Crypt structures and individual cells can be identified. Key: crypt (arrow), tight junction (arrowhead), lumen (I), colonocyte (c), goblet cell (g), lamina propria (lp).
This instrument has a diameter of 4.2 mm, which is small enough to perform repetitive in vivo imaging in mouse colon. The focusing optics provide a spatial resolution of 1.2 μm. A rigid wide-field endoscope was used first to collect white light (WL) and NIR fluorescence (FL) images to identify the approximate location of the implanted PDOs. Landmarks defined by the clockwise location of and distance from the anus to the distal tip of the endoscope were used to approximately locate the implanted PDOs for collection of confocal images. Tumor size and volume were estimated using a calibrated gauge passed through the instrument channel of the rigid endoscope. […] Differences in the spatial pattern of target expression between dysplasia and surrounding normal mucosa for colonic PDOs can be seen (FIG. 18D,E).

On to “RTS*-Cy5.5: Cy5.5-labeled peptide RTSPSSR, specific for claudin-1”, for which the “fluorescence intensity from implanted colonic PDO” value was “strong intensity”.
